Reference: patent US20200199212A1 (Eli Lilly, published 2020)

T1: LPL on LPL-expressing cells (Example 1)
T1 sequence (P06858 28-475, species assumed, looked up): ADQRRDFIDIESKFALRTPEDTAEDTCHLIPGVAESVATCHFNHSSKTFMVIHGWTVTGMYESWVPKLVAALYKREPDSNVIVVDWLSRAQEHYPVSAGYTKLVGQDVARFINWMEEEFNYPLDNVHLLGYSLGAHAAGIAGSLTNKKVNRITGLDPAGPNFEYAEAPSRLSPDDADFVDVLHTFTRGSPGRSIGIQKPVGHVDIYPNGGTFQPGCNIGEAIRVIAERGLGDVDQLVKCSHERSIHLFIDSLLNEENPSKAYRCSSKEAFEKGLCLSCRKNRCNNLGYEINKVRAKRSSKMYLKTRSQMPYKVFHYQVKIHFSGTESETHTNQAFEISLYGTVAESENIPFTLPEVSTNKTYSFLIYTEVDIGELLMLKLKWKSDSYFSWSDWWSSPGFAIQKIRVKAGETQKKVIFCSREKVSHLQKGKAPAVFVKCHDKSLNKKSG


Biological target: T1, LPL on LPL-expressing cells (Example 1)
Assay: cell-based or functional assay

Row | EC50 in the LPL assay (inhibition of LPL) | Binder
1 | 0.54 nM | human ANGPTL3/8 complex (other) chain 1: SRIDQDNSSFDSLSPEPKSRFAMLDDVKILANGLLQLGHGLKDFVHKTKGQINDIFQKLNIFDQSFYDLSLQTSEIKEEEKELRRTTYKLQVKNEEVKNMSLELNSKLESLLEEKILLQQKVKYLEEQLTNLIQNQPETPEHPEVTSLKTFVEKQDNSIKDLLQTVEDQYKQLNQQHSQIKEIENQLRRTSIQEPTEISLSSKPRAPRTTPFLQLNEIRNVKHDGIPAECTTIYNRGEHTSGMYAIRPSNSQVFHVYCDVISGSPWTLIQHRIDGSQNFNETWENYKYGFGRLDGEFWLGLEKIYSIVKQSNYVLRIELEDWKDNKHYIEYSFYLGNHETNYTLHLVAITGNVPNAIPENKDLVFSTWDHKAKGHFNCPEGYSGGWWWHDECGENNLNGKYNKPRAKSKPERRRGLSWKSQNGRLYSIKSTKMLIHPTDSESFEAAADYKDDDDK chain 2: APMGGPELAQHEELTLLFHGTLQLGQALNGVYRTTEGRLTKARNSLGLYGRTIELLGQEVSRGRDAAQELRASLLETQMEEDILQLQAEATAEVLGEVAQAQKVLRDSVQRLEVQLRSAWLGPAYREFEVLKAHADKQSHILWALTGHVQRQRREMVAQQHRLRQIQERLHTAALPA
2 | 21.5 nM | human ANGPTL3 (ligand) SRIDQDNSSFDSLSPEPKSRFAMLDDVKILANGLLQLGHGLKDFVHKTKGQINDIFQKLNIFDQSFYDLSLQTSEIKEEEKELRRTTYKLQVKNEEVKNMSLELNSKLESLLEEKILLQQKVKYLEEQLTNLIQNQPETPEHPEVTSLKTFVEKQDNSIKDLLQTVEDQYKQLNQQHSQIKEIENQLRRTSIQEPTEISLSSKPRAPRTTPFLQLNEIRNVKHDGIPAECTTIYNRGEHTSGMYAIRPSNSQVFHVYCDVISGSPWTLIQHRIDGSQNFNETWENYKYGFGRLDGEFWLGLEKIYSIVKQSNYVLRIELEDWKDNKHYIEYSFYLGNHETNYTLHLVAITGNVPNAIPENKDLVFSTWDHKAKGHFNCPEGYSGGWWWHDECGENNLNGKYNKPRAKSKPERRRGLSWKSQNGRLYSIKSTKMLIHPTDSESFE
